# Data reported in paper PMC4981888.
# Biological target: GST-SVV (UniProt O15392)
# Experiment: native gel or EMSA; 0.5 μg recombinant protein in native sample buffer (no SDS, no β-mercaptoethanol) on a 15% or 6% native polyacrylamide gel; Western blot with anti-SVV or anti-cortactin; monomer and dimer bands
substance,measurement,value
GST-SVV (from UniProt O15392 1-142),stoichiometry N,2
